Source: patent US20230250156A1 (QUADRUCEPT BIO, published 2023)
Read-outs that look alike come from different tables or passages of the source.

Assays:
[1] = molecular target: T1, SARS-CoV-2 RBD protein (SARS-CoV-2, UniProt P0DTC2 319-541)
[2] = molecular target: T1, SARS-CoV-2 RBD protein; remark: listed apart in the source
[3] = molecular target: T1, SARS-CoV-2 RBD protein; assay: competitive ELISA as for the GB Quads, ACE2 Ig coated
[4] = molecular target: T1, SARS-CoV-2 RBD protein; remark: listed apart in the source
[5] = molecular target: T1, SARS-CoV-2 RBD protein; assay: indirect binding ELISA, CoV-2 RBD coated

Row | Binder | IC50 [1] | further results
1 | Q180/Q182 (VHH QB-GB Fab-like Ig, non-Quad format) (VHH) heavy: not shown light: QVQLQESGGGLVQAGGSLRLSCAASGRTFSEYAMGWFRQAPGKEREFVATISWSGGSTYYTDSVKGRFTISRDNAKNTVYLQMNSLKPDDTAVYYCAAAGLGTVVSEWDYDYDYWGQGTQVTVSSGGGGSGGGGSKRTVAAPSVFIFPPSDEQLKSGTASVVCLLNNFYPREAKVQWKVDNALQSGNSQESVTEQDSKDSTYSLSSTLTLSKADYEKHKVYACEVTHQGLSSPVTKSFNRGEC | 77.8 pM | –
2 | Q186/Q182 (VHH QB-GB Fab'-like TD, octavalent GB Quad) (VHH) heavy: QVQLQESGGGLVQAGGSLRLSCAASGRTFSEYAMGWFRQAPGKEREFVATISWSGGSTYYTDSVKGRFTISRDNAKNTVYLQMNSLKPDDTAVYYCAAAGLGTVVSEWDYDYDYWGQGTQVTVSSGGGGSGGGGSASTKGPSVFPLAPSSKSTSGGTAALGCLVKDYFPEPVTVSWNSGALTSGVHTFPAVLQSSGLYSLSSVVTVPSSSLGTQTYICNVNHKPSNTKVDKKVEPKSCDKTHTCPPCPAPELLGGKKKPLDGEYFTLQIRGRERFEMFRELNEALELKDAQAGKEPG light: QVQLQESGGGLVQAGGSLRLSCAASGRTFSEYAMGWFRQAPGKEREFVATISWSGGSTYYTDSVKGRFTISRDNAKNTVYLQMNSLKPDDTAVYYCAAAGLGTVVSEWDYDYDYWGQGTQVTVSSGGGGSGGGGSKRTVAAPSVFIFPPSDEQLKSGTASVVCLLNNFYPREAKVQWKVDNALQSGNSQESVTEQDSKDSTYSLSSTLTLSKADYEKHKVYACEVTHQGLSSPVTKSFNRGEC | 14.8 pM | IC50 [2]: 8.3 pM
3 | Q181/Q182 (VHH QB-GB Fab-like Ig-TD) (VHH) heavy: not shown light: QVQLQESGGGLVQAGGSLRLSCAASGRTFSEYAMGWFRQAPGKEREFVATISWSGGSTYYTDSVKGRFTISRDNAKNTVYLQMNSLKPDDTAVYYCAAAGLGTVVSEWDYDYDYWGQGTQVTVSSGGGGSGGGGSKRTVAAPSVFIFPPSDEQLKSGTASVVCLLNNFYPREAKVQWKVDNALQSGNSQESVTEQDSKDSTYSLSSTLTLSKADYEKHKVYACEVTHQGLSSPVTKSFNRGEC | 15.4 pM | –
4 | Q183/Q182 (VHH QB-GB Fab-like TD) (VHH) heavy: QVQLQESGGGLVQAGGSLRLSCAASGRTFSEYAMGWFRQAPGKEREFVATISWSGGSTYYTDSVKGRFTISRDNAKNTVYLQMNSLKPDDTAVYYCAAAGLGTVVSEWDYDYDYWGQGTQVTVSSGGGGSGGGGSASTKGPSVFPLAPSSKSTSGGTAALGCLVKDYFPEPVTVSWNSGALTSGVHTFPAVLQSSGLYSLSSVVTVPSSSLGTQTYICNVNHKPSNTKVDKKVEPKSCDKTHTKKKPLDGEYFTLQIRGRERFEMFRELNEALELKDAQAGKEPG light: QVQLQESGGGLVQAGGSLRLSCAASGRTFSEYAMGWFRQAPGKEREFVATISWSGGSTYYTDSVKGRFTISRDNAKNTVYLQMNSLKPDDTAVYYCAAAGLGTVVSEWDYDYDYWGQGTQVTVSSGGGGSGGGGSKRTVAAPSVFIFPPSDEQLKSGTASVVCLLNNFYPREAKVQWKVDNALQSGNSQESVTEQDSKDSTYSLSSTLTLSKADYEKHKVYACEVTHQGLSSPVTKSFNRGEC | 31.2 pM | –
5 | Q184/Q182 (VHH QB-GB Fab-like mIg-TD) (VHH) heavy: QVQLQESGGGLVQAGGSLRLSCAASGRTFSEYAMGWFRQAPGKEREFVATISWSGGSTYYTDSVKGRFTISRDNAKNTVYLQMNSLKPDDTAVYYCAAAGLGTVVSEWDYDYDYWGQGTQVTVSSGGGGSGGGGSASTKGPSVFPLAPSSKSTSGGTAALGCLVKDYFPEPVTVSWNSGALTSGVHTFPAVLQSSGLYSLSSVVTVPSSSLGTQTYICNVNHKPSNTKVDKKVEPKSCDKTHTAPELLGGPSVFLFPPKPKDTLMISRTPEVTCVVVDVSHEDPEVKFNWYVDGVEVHNAKTKPREEQYNSTYRVVSVLTVLHQDWLNGKEYKCKVSNKALPAPIEKTISKAKGQPREPQVYTLPPSRDELTKNQVSLTCLVKGFYPSDIAVEWESNGQPENNYKTTPPVLDSDGSFFLYSKLTVDKSRWQQGNVFSCSVMHEALHNHYTQKSLSLSPGKKKKPLDGEYFTLQIRGRERFEMFRELNEALELKDAQAGKEPG light: QVQLQESGGGLVQAGGSLRLSCAASGRTFSEYAMGWFRQAPGKEREFVATISWSGGSTYYTDSVKGRFTISRDNAKNTVYLQMNSLKPDDTAVYYCAAAGLGTVVSEWDYDYDYWGQGTQVTVSSGGGGSGGGGSKRTVAAPSVFIFPPSDEQLKSGTASVVCLLNNFYPREAKVQWKVDNALQSGNSQESVTEQDSKDSTYSLSSTLTLSKADYEKHKVYACEVTHQGLSSPVTKSFNRGEC | 34.2 pM | –
6 | QB-FE mIg-TD Quad (VHH, as m58) VHH: QVQLVESGGGSVQAGGSLRLSCAASGTIAHIKYLGWFRQAPGKEREGVAALMTKWGQTYYADSVKGRFTVSLDNAKNTVYLQMNSLKPEDTALYYCAAASYGANFPLKASDYSYWGQGTQVTVSS | – | IC50 [3]: 80 pM
7 | Q185B (tandem GB VHH-hinge-TD) (VHH) QVQLQESGGGLVQAGGSLRLSCAASGRTFSEYAMGWFRQAPGKEREFVATISWSGGSTYYTDSVKGRFTISRDNAKNTVYLQMNSLKPDDTAVYYCAAAGLGTVVSEWDYDYDYWGQGTQVTVSSGGSGGSQVQLQESGGGLVQAGGSLRLSCAASGRTFSEYAMGWFRQAPGKEREFVATISWSGGSTYYTDSVKGRFTISRDNAKNTVYLQMNSLKPDDTAVYYCAAAGLGTVVSEWDYDYDYWGQGTQVTVSSGGGGSGGGGSEPKSCDKTHTCPPCPAPELLGGKKKPLDGEYFTLQIRGRERFEMFRELNEALELKDAQAGKEPG | – | IC50 [4]: 0.03 pM
8 | QB-FE VHH (monovalent) (VHH) VHH: QVQLVESGGGSVQAGGSLRLSCAASGTIAHIKYLGWFRQAPGKEREGVAALMTKWGQTYYADSVKGRFTVSLDNAKNTVYLQMNSLKPEDTALYYCAAASYGANFPLKASDYSYWGQGTQVTVS | – | binding result [5]: no binding (tested: 100 nM)
9 | Q177 (VHH QB-GB-TD) (VHH) VHH: QVQLQESGGGLVQAGGSLRLSCAASGRTFSEYAMGWFRQAPGKEREFVATISWSGGSTYYTDSVKGRFTISRDNAKNTVYLQMNSLKPDDTAVYYCAAAGLGTVVSEWDYDYDYWGQGTQVTVSS | 64.9 pM | –
10 | Q179 (VHH QB-GB Ig-TD) (VHH) VHH: QVQLQESGGGLVQAGGSLRLSCAASGRTFSEYAMGWFRQAPGKEREFVATISWSGGSTYYTDSVKGRFTISRDNAKNTVYLQMNSLKPDDTAVYYCAAAGLGTVVSEWDYDYDYWGQGTQVTVSS | 32.8 pM | –
11 | Q178 (VHH QB-GB IgG, non-Quad format) (VHH) VHH: QVQLQESGGGLVQAGGSLRLSCAASGRTFSEYAMGWFRQAPGKEREFVATISWSGGSTYYTDSVKGRFTISRDNAKNTVYLQMNSLKPDDTAVYYCAAAGLGTVVSEWDYDYDYWGQGTQVTVSS | 185 pM | –
12 | Q185 (VHH QB-GB dimeric TD) (VHH) VHH: QVQLQESGGGLVQAGGSLRLSCAASGRTFSEYAMGWFRQAPGKEREFVATISWSGGSTYYTDSVKGRFTISRDNAKNTVYLQMNSLKPDDTAVYYCAAAGLGTVVSEWDYDYDYWGQGTQVTVSS | 23.7 pM | IC50 [2]: 14.7 pM
